Assay results as given in the supplement of paper PMC12764529.
± gives the half width of the 95% confidence interval.

Assays:
[1] = folding stability dG unfold from trypsin proteolysis; higher = more stable
Procedure, shortened: (§1)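 Designed mini-proteins with no cysteine and under 80 residues were kept only if AlphaFold2 dimer inter-PAE was above 15. In a PA-tagged cDNA display construct, they were digested with trypsin and chymotrypsin and then sequenced. K50 was inferred by Bayesian fitting of counts, and unfolding free energy was derived per protease or combined against a sequence-predicted unfolded-state K50 and a shared folded-state K50.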

[2] = folding stability dG unfold from chymotrypsin proteolysis; higher = more stable
Procedure, shortened: as §1

[3] = folding stability dG unfold (combined trypsin and chymotrypsin); higher = more stable
Procedure, shortened: as §1

Row | Sequence | folding stability dG unfold [1] | folding stability dG unfold [2] | folding stability dG unfold [3]
1 | SMKVYVKVLPPEYAVAYIYTDKKYEIPIPTTDLEEARAQIEEIVNEIEKRTGVKAEVEITEVAPDTKIPLSA [r9_786_JUSTAS] | 0.182 ± 0.15 kcal/mol | 0.928 ± 0.13 kcal/mol | 0.74 ± 0.22 kcal/mol
2 | SAGGKLPKLPPGQIEIMDFQIEPDPDGRYKMSFMITITAPDNGKKVVVMLEMWMPPDGEMKTGIGIMPSAGG [r13_263_TrROS] | 1.9 ± 0.14 kcal/mol | 2.85 ± 0.15 kcal/mol | 2.65 ± 0.34 kcal/mol
3 | SAGGMLGFRAETDLFVEPIPPGAEVEPLRIGDRLLLIVRHPDGSYTINLFTPVRPLPVPPAFSTANAASAGG [r13_804_TrMRF] | 1.6 ± 0.036 kcal/mol | 1.64 ± 0.069 kcal/mol | 1.68 ± 0.051 kcal/mol
4 | SAGGSAGGSAGGKPKKVILIEADTLEEALAAAEALAPPGAKVTVTLVERDGKLYLLVTVDSAGGSAGGSAGG [r7_877_TrROS_Hall] | 2.16 ± 0.045 kcal/mol | 3.75 ± 0.046 kcal/mol | 3.351 ± 0.028 kcal/mol
5 | SAGGAPVPVSVTVEIFKRPDGYIIKVNIPSGETKTFSSLEELEKFLKENPSLKITKRTTVPIEKYYESSAGG [r13_730_JUSTAS] | 1.94 ± 0.047 kcal/mol | 2.83 ± 0.021 kcal/mol | 2.67 ± 0.071 kcal/mol
6 | SAGGMNTESSFPITLPDGRKVLKNVKTDPETGEITVTVTSIGDPNVKTTEKVDPENPEKVLETVTKPESAGG [r13_400_JUSTAS] | -0.353 ± 0.037 kcal/mol | 0.206 ± 0.11 kcal/mol | 0.0461 ± 0.15 kcal/mol
7 | SAGGSAGGIKYRVMVHNPESGRWHRIDDIEIDPPDGRIKIRFPGNGKEITIPPGYPIMISPDMLSAGGSAGG [r6_885_TrROS] | 0.662 ± 0.1 kcal/mol | 0.793 ± 0.17 kcal/mol | 0.795 ± 0.071 kcal/mol
8 | SMLLIKITVKNPDGEEKEIVLSAEELRKLFEEETGEEYSLEEIAERLKKLFPNAKVEIVPLEELSEEELKSA [r9_1085_TrROS_Hall] | 2.77 ± 0.073 kcal/mol | 3.58 ± 0.068 kcal/mol | 3.31 ± 0.12 kcal/mol
9 | SSWEKLSTLTLPSTGLTVTFYYDPSTNSTAVKVTDGAGPELSEKVLSDDETFTLPDGVSIKLPKGAEPASSA [r9_340_JUSTAS] | 0.334 ± 0.021 kcal/mol | 1.45 ± 0.077 kcal/mol | 1.02 ± 0.081 kcal/mol
10 | SAGGSAGGSAGGLEIVKEVIKNPLKNEPVEVLILIEKKEEPIEKTDLFEIPVKITIIPLSAGGSAGGSAGGS [r10_459_JUSTAS] | 1.29 ± 0.11 kcal/mol | 0.152 ± 0.16 kcal/mol | 0.812 ± 0.19 kcal/mol
11 | SAGGMPLVELEIVLPKEELEKLEEALRKLGYKVVKIEVVEYDPENDLVRVRIVLEKPMTLEELKKALKSAGG [r13_725_TrROS_Hall] | 3.72 ± 0.11 kcal/mol | 4.74 ± 0.18 kcal/mol | 4.63 ± 0.61 kcal/mol
12 | SAGGSAEPRPVVVVFEGTEEEVEELVQKVRDEGFAIDFKVEPLPDPRYYRATVIVRDPDGSWTAKLSAGGSA [r15_177_TrMRF] | 2.07 ± 0.046 kcal/mol | 2.11 ± 0.041 kcal/mol | 2.12 ± 0.04 kcal/mol
13 | SLSEEEAKDNPEEANEKMQPPPVPPIPLPVPIRNPDNKQEFPAPFEIRTLPNHLEFRFPGNGKPFPVPIDSA [r9_548_TrROS] | 2.53 ± 0.24 kcal/mol | 2.87 ± 0.11 kcal/mol | 2.63 ± 0.28 kcal/mol
14 | SAGGSAGGSAGGDERVEVFEFDAPGGYRVRLVDFGDLALVAFISPDGRPAVIPVPRELLSAGGSAGGSAGGS [r10_1075_TrMRF] | 0.529 ± 0.041 kcal/mol | 1.87 ± 0.035 kcal/mol | 1.41 ± 0.044 kcal/mol
15 | SAGGGMGRIPLYGEERVEEIAAEPDVVSVEEDPETGRTYVYFERPDGYYSFTRDNETGEITEKTPLPSAGGS [r8_251_JUSTAS] | -0.462 ± 0.23 kcal/mol | -0.523 ± 0.5 kcal/mol | -0.237 ± 0.21 kcal/mol
16 | SMGVKIEIDKEIIEKAIEEGKTFEADAKIKIEAYNPKTGKKIAEAEKIVKIRLEIEPPKAEPDPETGKPESA [r9_396_TrMRF] | 0.661 ± 0.071 kcal/mol | 0.36 ± 0.066 kcal/mol | 0.633 ± 0.13 kcal/mol
17 | SAGGSAGGSKIEFTVPDNDELIEYIRKWFQDNGGQIKNIKIEPTPPNQVKVEIEINPGDPWFQSAGGSAGGS [r12_647_TrROS] | 1.74 ± 0.041 kcal/mol | 2.36 ± 0.077 kcal/mol | 2.2 ± 0.14 kcal/mol
18 | SAGGSGMMLEEGVGVDPTTGELHRFTYLREPERPPVEVTVTTTTVVYTTPDGTTVTVTTTTTLEGGSAGGSA [r2_326_JUSTAS] | 0.671 ± 0.047 kcal/mol | 0.786 ± 0.27 kcal/mol | 0.789 ± 0.13 kcal/mol
19 | SAGGSAGGSEKVEIEREFKLPDPNGKPFRFTVEIEVEPRNDGLKIEITEVEGPWMRDAIKKLLSAGGSAGGS [r12_743_TrROS] | 0.696 ± 0.14 kcal/mol | 0.922 ± 0.24 kcal/mol | 0.907 ± 0.2 kcal/mol
20 | SAGGSAGGSAGPSYIAVVEFENGERPVYLFPPNTGKLEDIVEELKKKFPSLKKITIYPAPSAGGSAGGSAGG [r11_311_TrMRF] | 3.58 ± 0.17 kcal/mol | 3.01 ± 0.16 kcal/mol | 3.33 ± 0.087 kcal/mol
21 | SAGGPEVFVFRDPLTGTWSLAVYDPSTGLWTVTYPDGTVALYRRSGDSWELVEARPVPPAPVDPDLASAGGS [r16_687_TrMRF] | 3.34 ± 0.12 kcal/mol | 3.714 ± 0.014 kcal/mol | 3.54 ± 0.065 kcal/mol

Row | Sequence | folding stability dG unfold [1] | folding stability dG unfold [2] | folding stability dG unfold [3]
22 | SAGGIIIYPKDPDGKQRPIPPEVIRRIVDTIARRYGFEIKIDIEIEPTNDYWVITIPIEIEGLPPEQLSAGG [r13_790_TrROS] | 1.87 ± 0.06 kcal/mol | 2.23 ± 0.068 kcal/mol | 2.18 ± 0.086 kcal/mol
23 | SAGGMTIEEILNMSIEEVKALAEEKGLKEVVITLPDGSKITIKVNKDGSIEVTVTNKDGSKKTFTFPSAGGS [r8_51_TrROS_Hall] | 3.91 ± 0.42 kcal/mol | 3.97 ± 0.1 kcal/mol | 4.05 ± 0.24 kcal/mol
24 | SAGGSAGGSFRIPKGDPNMKIRIIFQWPNGQPMPMEYTVTPDGTFKINIPGMPPNRIESIEIWSAGGSAGGS [r12_477_TrROS] | 1.98 ± 0.17 kcal/mol | 1.68 ± 0.26 kcal/mol | 1.95 ± 0.21 kcal/mol
25 | SAGGSAPSISYTDPNITTITVNPPYITTTRPDGTTTVYKVNNGGDITKLKTTPPVPPAAATDASVASAGGSA [r15_393_JUSTAS] | -0.17 ± 0.071 kcal/mol | 0.421 ± 0.13 kcal/mol | 0.148 ± 0.16 kcal/mol
26 | SAKKVEVKKIKVEVTFYDKNGKKVKKKKATITVVKVDGKYYVTIYDENTGKKYVFEFPSLEEAKKALKKSAG [r14_508_TrROS_Hall] | 1.91 ± 0.11 kcal/mol | 3.09 ± 0.044 kcal/mol | 2.77 ± 0.33 kcal/mol
27 | KTITIVVKVPSLEEVEALAAELAKELNLPPGAKVEVKVEYDEETGYVVVTVTVTNPNGEKIEIKIVVELPDS [r1_84_TrROS_Hall] | 1.86 ± 0.1 kcal/mol | 3.72 ± 0.38 kcal/mol | 3.08 ± 0.22 kcal/mol
28 | SAMETYEYPVTGDSATFTVPVPPDHIAKVTVHYPSGSTDTVVPPGVTTTFTVPSSNATVTITIYPRSALSAG [r14_882_JUSTAS] | 1.01 ± 0.025 kcal/mol | 1.53 ± 0.11 kcal/mol | 1.34 ± 0.068 kcal/mol
29 | EKKTLTVLIEVPPEKLEEALARALELAKALPPGQKLEIEIVNEDGTVVRVTVTVDENGEIHIDVEVLPRPPS [r1_350_TrROS_Hall] | 1.76 ± 0.073 kcal/mol | 2.36 ± 0.16 kcal/mol | 2.23 ± 0.16 kcal/mol
30 | SAGGSAMTKVTVTFDPVTGTYTIKTTDSKGPSEYPLPKSFLEKTPLSEVAKKLNLNISEFTIEPNPSAGGSA [r15_801_JUSTAS] | 0.771 ± 0.044 kcal/mol | 1.25 ± 0.099 kcal/mol | 1.14 ± 0.092 kcal/mol
31 | SMTIEGMSPREAVRNIIEEFIEMFEANGNPPMPIKIRFPGNGKPIYEFPIQSKEQLLDQIENGVPVSIEFSA [r9_718_TrROS] | 0.604 ± 0.027 kcal/mol | -0.498 ± 0.18 kcal/mol | 0.183 ± 0.1 kcal/mol
32 | SAGGLEILEVDPDTYTITIRFGDRPLEFTVPPDYPPTITITEDPDGSVTLTIEVPDRTETFTIPRELVESAG [r5_500_TrMRF] | 1.18 ± 0.021 kcal/mol | 1.84 ± 0.09 kcal/mol | 1.61 ± 0.083 kcal/mol
33 | SAGGSITKTLGTEEKGDKTITYSVTTSPEGKITFTTTTKTPSGSGTSTTTTTTTTPLAGLPLPPLGGSAGGS [r8_458_JUSTAS] | 0.473 ± 0.042 kcal/mol | 0.831 ± 0.18 kcal/mol | 0.717 ± 0.19 kcal/mol
34 | SAGGSAGGSGMKRTATVVERDPATGRVLLEITDGSKTTTRVLEGPPSGRGAASSPEIDSLSLLSAGGSAGGS [r12_421_JUSTAS] | -1.16 ± 0.29 kcal/mol | -0.169 ± 0.12 kcal/mol | -0.423 ± 0.098 kcal/mol
35 | SAGGSAGGSAGGMRRVTIWFPIPEDEEITFKLPGNGVEVEIEPDKGNGFFRITVYLPDGSAGGSAGGSAGGS [r10_1138_TrROS] | 1.42 ± 0.036 kcal/mol | 2.07 ± 0.12 kcal/mol | 1.94 ± 0.098 kcal/mol
36 | SAGGSTVAKKTTEKDPNSDTTTVTITFPETGVKLTVTVPPGGETTVTLNNGSPPTTLTLPLSVLKLLSAGGS [r8_238_JUSTAS] | 0.192 ± 0.077 kcal/mol | 0.87 ± 0.067 kcal/mol | 0.612 ± 0.077 kcal/mol
37 | SAGGSAGGSDVEDIIKKLKIPPGYRMRFPDGKSHKFNNLDDIRNLAEMGMPPDNIDKIQIQPYSAGGSAGGS [r12_430_TrROS] | -0.152 ± 0.22 kcal/mol | 0.09 ± 0.28 kcal/mol | 0.0517 ± 0.15 kcal/mol
38 | SAGGSAGGSKTLIIKIKVEGLSEEEIAEELAKKLQEETGLKIKSVKIEKKDGYLYIEVEVEEPSAGGSAGGS [r12_781_TrROS_Hall] | 3.86 ± 0.4 kcal/mol | 3.96 ± 0.17 kcal/mol | 4.15 ± 0.21 kcal/mol
39 | SAGGSAGGSPVVAIRAKSREELLAALEALLPPGQKLTPEQRQQLVDTLLANLDVKPGDTILVRSAGGSAGGS [r12_983_TrROS_Hall] | 1.07 ± 0.064 kcal/mol | 0.921 ± 0.034 kcal/mol | 0.992 ± 0.12 kcal/mol
40 | SMMIKVKITITNEKGEEVEIEIVASPEEIEEALRKLLPPGAKVEIEKIEFYPLEELKPGDVIKITVRVKPSA [r9_803_TrROS_Hall] | 2.85 ± 0.11 kcal/mol | 4.47 ± 0.54 kcal/mol | 3.72 ± 0.34 kcal/mol
41 | SAGGSAGGSAGGTKTYTITNEDGSKITIEEVDGKYVITYPNGEKKEIEGMTLEELLKALSAGGSAGGSAGGS [r10_569_TrROS_Hall] | 4.22 ± 0.58 kcal/mol | 4.26 ± 0.21 kcal/mol | 4.35 ± 0.18 kcal/mol
42 | KPKIKITITFNKETGKITITAVNKDNNVVVKTEFELKDGKLTMKIEVKNKKTNKTYTIEIEIKLLKPGEKLS [r1_404_TrROS_Hall] | 2.58 ± 0.19 kcal/mol | 4.32 ± 0.094 kcal/mol | 3.86 ± 0.32 kcal/mol
